Assay: yeast display, Sf9 membrane polyspecificity reagent, FACS + sequencing; frameworks hold sequencing errors
Summary of the method: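 Galactose-induced (36–48 hours) yeast carrying a synthetic nanobody display library were exposed to 10% biotinylated, detergent-solubilized Sf9 membrane reagent at 4 °C for 1 hour. FACS followed streptavidin microbead enrichment, using low and high (top ~1%) gates for expression (anti-HA) and reagent binding (streptavidin). Colony PCR, MiSeq 2 × 250 sequencing and CDR-length filtering followed. Labels for polyreactivity reflect the gate of origin.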

Sequence: QVQLVESGGGLVQAGGSLRLSCAASGFISFDKAMGWYRQAPGKERELVAAIRSGGSTNYADSVKGLFTISRDNAKNTVYLQMNSLKPEDTAVYYCATDGSLRARSTSGWEYTNGDYWGQGTQVTVSS
- polyreactivity (PSR sort gate): low polyreactivity

Sequence: QVQLQESGGGLVQAGGSLRLSCAARASIFKVVDMGLYRQAPAKEREFVATIGEGGNTYYADSVKGRFTISRDNAKNTVYLQMNSLKPEDTAVYFYAVVLGTSYRYTYWGQGTQVTVSS
- polyreactivity (PSR sort gate): low polyreactivity

Sequence: QVQLVESGGGLVQAGGSLRLSCAASGSIFNSNVMGWYRQAPGKERELVAAISTSGGSTHYADSVKGRFTISRDNAKNTVYLQMNSLKPEDTAVYYCAARVSSYSQLYYYWGQGTQVTVSS
- polyreactivity (PSR sort gate): high polyreactivity

Sequence: QVQLVESWGGLVQAGGSLRLSCAASGSIFRGYAMGWYRQAPGKGRELVAAISWSGASTYYADSVKGRFTISRDNAKNTVYLKMNSLKPEDTAVYYCAAVQWTGYPFDYWGQGTQVTVSS
- polyreactivity (PSR sort gate): high polyreactivity

Sequence: QVQLVESGGGLVQAGGSLRLTCAASGSTFEVYAMGWYRQAPGKEREFVAAITVDGGSTYYADSVKGRFTISRDNAKNTVYLQMNSLKPEDTAVYYCAADSGSWEYYYWGQGTQVTVSS
- polyreactivity (PSR sort gate): low polyreactivity

Sequence: QVQLVESGGGLVQAGGSLRLSCAASGRTFGTNAMGWYRLAPGKEWELVASISGGTRTNYADSVKGRFTISRDNAKNTVYLQMNSLKPEDTAVYSCAAEVGLPTWYTLPVDDYDYWGQGTQVTVSS
- polyreactivity (PSR sort gate): low polyreactivity

Sequence: QVQLVESGGGLVQAGGSLRLSCAASGSTFYRYAMGWYRQAPGKERELVAAITRTTARTYYADSVKGRFTISRDYAKNTVYLQMNSLKPEDTAVYYCAADLYSWTWSGFRQYDYWGQGTQVTVSS
- polyreactivity (PSR sort gate): high polyreactivity

Sequence: QVQRVESGGGLVQAGGSLRLSCAASGRTFLQYAMGWYSQAPGKVREFVAAINWSGGSTYYAASVKRRFTISRDNAKNTVYLPMHSLKPEDTAVYYCAARRVYLGEYDYWGQGTQVTVSS
- polyreactivity (PSR sort gate): high polyreactivity

Sequence: QVQLVESRGGLVQAGGSLRLSCAASGSIFDGYAMGWYRQAPGKERELVAAITWSGGRTYYADSVKGRFTISRDNAKNTVYLQMNSLKPEDTAVYYCNAVTGSWRYDYWGQGTQVTVSS
- polyreactivity (PSR sort gate): high polyreactivity

Sequence: QVQLVESGGGLVQAGGSLRLSCAASGRIFYKNVMVWYRQAPGKERELVAAISTSTGRTYYADSVKGRFTISRDNAKNTVYLEMNSLKPEDTAVYYCNAVRGHTNGVLYRYDYWGQGTQVTVSS
- polyreactivity (PSR sort gate): high polyreactivity

Sequence: QVQLVESGGGLVQAGGSLRLSCAPSGSTFQYYAMGWYRQAPGKESELVATITRRGDSTYYADSVKGRFTISRDSAKNTVYFQMNSLKPEDTAVYYCATRYWRSGYDWPYGSWGQGTQETVSS
- polyreactivity (PSR sort gate): high polyreactivity

Sequence: QVQHVESGGGLVQAGGNLRLSCPASGRTIYSYTMGWYRQTPGKERELVAAINRSGGRTYYADSVKGRFTISRDNAKNTVYLQMNSLKQEDTAVYYGNALEYYRYDYWGQGTQVTVSS
- polyreactivity (PSR sort gate): high polyreactivity

Sequence: QVQLVESGGGLVQAGGSLRLSCAASGNTFGDYAMGWYRQAPGKERELVAAISRSGGSTSYADSVKGRFTISRDNAKNTVYLQMNSLKPEDTAVYYCAAYWQRFGYDYWGQGTQVTVSS
- polyreactivity (PSR sort gate): low polyreactivity

Sequence: QVQLVESGGGLVQAGGSLRLSCAASGSTFGSYAMGWYRQAPGKERELVAGISWSGGRTYYADSVKGRFTISRDNAKNTVYLQMNSLKPEDTAVYYCARDTGYYYARYNYWGQGTQVTVSS
- polyreactivity (PSR sort gate): low polyreactivity

Sequence: QVQLVESGGGLVQAGGSLRLSCAASGRIFQYYTMGWYRQAPGKERELVAAISYGGGSTYYADSVKGRFTISRDHAKNTVYLQMNSLKPEDTAVYYCNAVTYSRRYAYYYWGQGTQVTVSS
- polyreactivity (PSR sort gate): high polyreactivity

Sequence: QVQLVESVGGLVQAGGSLRLSCAASGRTFAPNFMGWYRQAPGKERELVAAITYSSASTYYADSVKGRFTISRDNAKNTVYLQMNSLKPEDTAVYYCAARDRYYFGGMYYWGQGTQVTVSS
- polyreactivity (PSR sort gate): low polyreactivity

Sequence: QVQLVESGGGLVQAGGSLRISCAASGSIFYGNAMGWYRQAPGKERELVAAISKRGGSTYYADSVKGRFTISRDNAKNTVYLQMNSLKPEDTAVYYCAKATAGHTEYYYWGQGTQVTVSS
- polyreactivity (PSR sort gate): high polyreactivity

Sequence: QVQLQESGGGLGQAGRSLRHSFAASGNIFDAGIMGWYRQAPGEERELVACITDGGSTNYADSVKRRFTISRDNAKNTVYLQMNSQKPEDTAVYYCAASWDTIGLFAYWGQGTQVTVSS
- polyreactivity (PSR sort gate): high polyreactivity

Sequence: QVQLVESGGGLVQAGGSLRLSFAASGSIFRYYVMGWYRQAPGKERELVAAISSGGRTYYADSVKGRFTISRDNAKNTVYLQMNSLKPEDTAVYYCNAQGLFYWEMDYWGQGTQVTVSS
- polyreactivity (PSR sort gate): high polyreactivity

Sequence: QVQLVESGGGLVQAGGSLRLSCAASGIIFNGNTMGWYRQAPGKERELVAAITSGGTTSYADSVKGRFTISRDNAKNTVYLQMNSLKPADTAVYYCAADHPAFGPGYSFDYWGQGTQVTVSS
- polyreactivity (PSR sort gate): low polyreactivity

Sequence: QVQLVESGGGLVQAGGSLRLSCAASGSIFGPNAMGWYRQAPGKERELVAAISKSGSSTYYADSVKGRFTISRDNAKNTVYLQMNSLKREDTAVYYCAAKVSYSGVFSYYYWGQGTQVTVSS
- polyreactivity (PSR sort gate): high polyreactivity

Sequence: QVQLVESGGGLVQAGGSLRLSCAASGRTFRSYAMGWYRQAPGKERELVAAIRGGGGRTHYADSVKGRFTISRDNAKNTVYLQMNSLKPEDTAVYYCAAGRPYLESKLYDYWGQGTHVTVSS
- polyreactivity (PSR sort gate): high polyreactivity

Sequence: QVQLEESGGGLFQAGGSLRLSCAASGLNFGQNVMGWYRQAPGKERELLAAIRESGGRTYYADSVKGRFTISRDNAKNTFYIQMNSLNPEDTAVYYCRAYWRYSRYDYWGQGTQVTGSS
- polyreactivity (PSR sort gate): high polyreactivity

Sequence: QVQLVESGGGLVQAGGSLRLICAASGRIINGYAMVWYRQAPGKERELVAANSVSGGSTYYADSVKGRFTISRDNAKNTVYLQMNSMKPEDTAVYYCNARIGSRSYAWISTRYDYWGQGNQVTVSS
- polyreactivity (PSR sort gate): high polyreactivity

Sequence: QVQLVESGGGLVQAGGSLRLSCAASGFIFLDYAMGWYRQAPGKERELVAAISRSGGSTYYADSVKGRFTISRDYAKNTVYLQMNSLKPEDTAVYYCAAAFYGGGTWDSYWGQGTQVTVSS
- polyreactivity (PSR sort gate): high polyreactivity

Sequence: QVQLVETGGGLVQAGGSHSLSCAASVRTVSSYARGWCRQAPGTERELVARITWSGGTYYADSVKGRFTISRDNAKNTVYLQMNRLKPEDTSVYYCAKRSYYWEYYYWGQGTQVTVSS
- polyreactivity (PSR sort gate): high polyreactivity

Sequence: QVQLVESGGGLVQAGGSLRLSCAASGLTFQSYAMGWYRQAPGKEMELVATIYNGSSTYYAVSVKGRFTISRDNAKNTDYLQMNSLKPEDTAVYYCAKDYYYSRNALYGHDYWGQVTQVTVSS
- polyreactivity (PSR sort gate): low polyreactivity

Sequence: QVQLVESGGGLVQAGGSLRLSCAASGRIFGPYTMGWYRQAPGKEREFVAAITRRGGSTYYADSVKGRFTISRDNAKNTVYLQMNSLKPEDTAVYYCAAVGQKRSLGYSWGQGTQVTVSS
- polyreactivity (PSR sort gate): low polyreactivity

Sequence: QVQLVESGGGLVQAGGSLRLSCAASGSTFGWYAMGWYRQAPGKEREFVAAISWSGTSTYYADSVKGRFTISRDNAKNTVYLQMNSLKPEDTAVYYCNARSKRANRSLGLGYWGQGTQVTVSS
- polyreactivity (PSR sort gate): low polyreactivity

Sequence: QVQLVESGGGLVQAGGSLRLSCAASGSTFVNNAMGWYRQAPGKERELVAAISWSGGSTYYADSVKGRFTISRDNAKNTVYLQMNSLNPEDTAVYYCAADGNARAAMDYWGQGTQVTVSS
- polyreactivity (PSR sort gate): low polyreactivity

Sequence: QVQLVESGGGLVQAGGSLRLSCAASGSIFYGYAMGWYRQAPGKERELVASISKRGGSTYYADSVKGRFTISRDNAKNTVYLQMNSLKPEDTAVYYCAAEGVVYREYNYWGQGTQVTVSS
- polyreactivity (PSR sort gate): high polyreactivity

Sequence: HVQLVDSGGGIVQAGGSLRLSCAASGSTFYGNAMGWYRQAPGKEMEFVAAISRGGGSTYYADSVKGRFTISRDNAKNTVYVQMNLLKTEDTADFYCAATRYLHPWYYQYYYCGQGTQVTVSS
- polyreactivity (PSR sort gate): low polyreactivity

Sequence: QVQLVESGGGLVQAGGSLRLSCAASGLILSAYAMGWYRQAPGKERELVAAISGSGGRTYYADSVKGRFTISRDNAKNTVYLQMNSLKPEDTAVYYCAAPYTYVGSYTYNYWGQGTQVTVSS
- polyreactivity (PSR sort gate): high polyreactivity

Sequence: HVQHVESGGGLVQAGGSLRVSCAASGSIFYTNVMGWYRQAPGKERELVARIDSGGSTNYADSVKGRFTISRDNAKNTVYLQMYSLKPEDTAVYYCAADWYIYDYWGQGTQVTVSS
- polyreactivity (PSR sort gate): low polyreactivity

Sequence: QVQLVESGGGLVQAGGSLRLSCAASGRTIKSNDMGWYRQAPGKERELVSAISRRGGSTYYADSVKGRFTISRDNAKNTVYLQMNSLKPEDTAVYYCAADLTFSYRQSAGRYSTYGYWGQGTQVTVSS
- polyreactivity (PSR sort gate): high polyreactivity

Sequence: QVQLQESGGGLVQAGGSLRLSCAASGSIFVSVTMGWYRQAPGKERELVASIGRGSTTNHADSVKGRFTICRDNAKNIVYLLMNSLKPEDTAVYYCAALESYGKYHGYWGQGTQVTVSS
- polyreactivity (PSR sort gate): low polyreactivity

Sequence: QVQLVESGGGLVQAGGSLRLSCAASGSTFAEYAMGWYRQAPGKERELVATITSSGGGTYYADSVKGRFTISRDNAKNTVYLQMNSLKPEDTAVYYCGQGTQVTVSS
- polyreactivity (PSR sort gate): low polyreactivity

Sequence: QVQLVESGGGLVQAGGSLRLSCAASGSTFGLNAMGWYRQAHGKERDVVAAITRSDITNYADSVKGRFTISRDNAKNTVYLQMNSLKPEDTAVYYCNKTPDRHRRYFGYGYWGQGTQVTVSS
- polyreactivity (PSR sort gate): low polyreactivity

Sequence: QVQLVESGGGLVQAGGSLRLSCAASGSIFYPNAMGWYRQAPGKERELVAAITTGGSTNYADSVKGRFTISRDNAKNTVYLQMNSLKPEDTAVYYCNARHRYHSYTQPRWKYVYWGQGTQVTVSS
- polyreactivity (PSR sort gate): low polyreactivity

Sequence: QVQLVESGGGLVQAGGSLRLSCAASGSIFCYYAMGWYRQAPGKERELVATITSGGSTSYADSVKGRFTISRDNAKNTVYLQMNSLKPEDTAVYYCAAARLFTTYDWGQGTQVTVSS
- polyreactivity (PSR sort gate): low polyreactivity

Sequence: QVQLVESGGGLVQAGGSLRLSCAASGIIFPFYMGWYRQAPGKEREFVADITYSGGSTYYADSVKGRFTISRDNAKNTVYLQMNSLKPEDTAVYYCAAKFYWRGQSFRSGNFYWGQGTQVTVSS
- polyreactivity (PSR sort gate): high polyreactivity

Sequence: QDQLVESGGGLVQSGGSLRLSCAASGSTFYYYAMGWYRQAPGKERELVAAITSSTGRTYYADSVKGRFTISRDNAKYTVYLQMNSLKPEDTAVYYCITRRGSLSGLYVYSIQGYDYWGQGTQVTVSS
- polyreactivity (PSR sort gate): low polyreactivity

Sequence: QVQLVESGGGLVQAGGSLRLSCAASGSTIGSYAMGWYRQAPGKERELVAVITGGGDTNYADSVKGRFTISRDNAKNTVYLQMNSLKPEDTAVYYCAAEGSFYRYHVGSDYWGQGTQLTVSS
- polyreactivity (PSR sort gate): low polyreactivity

— the nanobody polyreactivity screen of Harvey et al. (2022)
